The supplement of paper PMC9732359
± gives the uncertainty stated by the source.

experiment: protein stability index of a GFP-peptide fusion (yeast GPS) (PSI 1-4); higher = more stable; sorted into four equal gates, so the index is relative within each strain; settings: pdr5∆
Summary of the method: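 The protein stability index of a peptide was calculated by multiplying its read frequency in each gate by that gate's number and adding the products. The peptides were tiled 17-residue stretches of yeast proteins, fused downstream of GFP on a Cherry-expressing plasmid and carried in yeast as a pooled library. Mid-log cultures in leucine-free medium were sorted into four equal gates by GFP/Cherry ratio, and each gate's plasmids were PCR-amplified and Illumina-sequenced.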

Sequence | protein stability index
FEFNIRHSGKVYPITLS [UBP6] | 2.51 ± 0.12

same assay, conditions: san1∆

Sequence | protein stability index
EPSGIYSSWSAQTIGRN [PRE6] | 1.06 ± 0.18
EQEIENNGLPMKNKAET [ITC1] | 3 ± 0.045
EQEQQQQQIIKIRITLT [RPS20] | 3.03 ± 0.043
EQISNNSNQQQNPKLFQ [SIN4] | 3.13 ± 0.062
EQKNTAKEELNGLKDQL [YIL149C/MLP2] | 3.12 ± 0.054
EQLKEQMEDMEESINEF [SMC4] | 3.17 ± 0.048
EQNSSSAKPSQIPTVSS [SIR4] | 2.97 ± 0.048
EQQWITRAQYLAFAKLV [SRP68] | 1.33 ± 0.086
EQSELLKAQITSLKCLV [SNF2] | 2.16 ± 0.074
EQSLEVFIFPTSNWEIY [SRB8] | 2.57 ± 0.044
EREPVPLGILHIPICVT [RRP45] | 1.47 ± 0.19
ERFQVMVLRKQKRYTVK [RPL14A] | 2.21 ± 0.24
ERGHPKDNARIYQVPEK [POP1] | 3 ± 0.093
ERHQAGKNQWFFSKLRF [RPL27A] | 3.09 ± 0.075
ERKEQEEKEKEQSKEVG [BRN1] | 3.49 ± 0.11
ERKQIHEFKLIVGKKIQ [GRR1] | 3.03 ± 0.06
ERKTLERQQENLLIQRL [SWI3] | 3.12 ± 0.078
ERNASEVRDATLNNIFR [GRR1] | 3.41 ± 0.19
ERPAIEFETPTFLVSND [RPN14] | 2.81 ± 0.06
ERTKQRTAKAYLKVSEE [PRP8] | 3.27 ± 0.056
ERVMKNKVEENLEGLYL [RPT2] | 3.07 ± 0.14
ESAVKYALAAKDRFDID [RPN2] | 2.87 ± 0.22
ESDSKATLQSNEPTQKD [DSN1] | 2.99 ± 0.071

Sequence | protein stability index
ESKLIPQENDLESKMSE [SMC3] | 3.15 ± 0.059
ESKPFSSDALSKEKANF [SIR4] | 1.73 ± 0.089
ESKSDDNSATSYYELET [RRI1] | 3.13 ± 0.067
ESLYEPNLEPEDLFETI [PUP3] | 2.99 ± 0.11
ESPVDVQSQVDSSSVSE [FAS1] | 3.14 ± 0.051
ESSINTHPHAADGSSYM [SKI6] | 3 ± 0.035
ESVPIYSIDEFFLQRKL [BRR2] | 2.96 ± 0.12
ESYNQNDWKLETERLIS [SIN4] | 3.29 ± 0.066
ETANVASLNLLQLAPGA [RPL4A] | 3.29 ± 0.078
ETESSVSNNEANTPSIP [SWI3] | 3.11 ± 0.054
ETIIEADKSLPSSMATL [YJR042W/NUP85] | 3 ± 0.046
ETIKSLEDPYKYHYKEE [CSN9] | 3.09 ± 0.07
ETYGSMEMSEKIQFILE [RPN5] | 2.53 ± 0.079
EVDKSKLITTYISLLKL [YDL116W/NUP84] | 1.27 ± 0.13
EVDVCDKCGLMGYSGWC [RET1] | 2.32 ± 0.19
EVFIGRVKDQDGRVNRF [YJR042W/NUP85] | 3.5 ± 0.14
EVGNRKHYLEDKLKVYK [SNF5] | 3.11 ± 0.12
EVIFTDVLKSQANTEPE [MCD1] | 2.97 ± 0.088
EVKLKASLKKMEETEQK [SMC3] | 3.2 ± 0.17
EVLEKDAAIVKKYKNKT [YGR119C/NUP57] | 3.16 ± 0.071
EVLQGLLQGGAKVVVTT [FAS2] | 2.29 ± 0.076
EVNSLLLQVNKTFCEDP [GRR1] | 3.22 ± 0.054
EVSDFDEMYELTDPMTV [DIB1] | 2.94 ± 0.23

Sequence | protein stability index
EVSGENVVEADLKRFVD [QCR2] | 3.36 ± 0.058
EYAALASLADVMSIESL [FAS1] | 3.14 ± 0.069
EYGKHDFKNEESLSEEH [MED8] | 3.1 ± 0.053
EYIDAEEEESILIAMQP [RPB2] | 3.13 ± 0.067
EYKLATYGVPGSENKRG [NUT1] | 3.33 ± 0.046
EYNRLKVQDAIEEEIFD [LIN1] | 2.85 ± 0.057
EYYAKKRAFTKKVASAN [RPL16A] | 1.69 ± 0.11
FAAKQRQELQMQRQQQG [SNF2] | 2.71 ± 0.038
FADKKRDCIDISIFSTP [PRP8] | 2.87 ± 0.055
FALIDYFYDLDVLKDGE [BRN1] | 3.04 ± 0.061
FDALRSLDDNSTSLEKQ [YJL041W/NSP1] | 3 ± 0.062
FDEGTTLLSPKDNGMLI [RPO21] | 2.91 ± 0.061
FDEKTIEEMLEIISGYA [RPC17] | 2.07 ± 0.14
FDFIKDNETPSKKTSPK [YOR098C/NUP1] | 2.6 ± 0.063
FDFLDDGTAQLSNNKTD [YJR042W/NUP85] | 3.5 ± 0.099
FDKNTKTTPNTASSEAS [YMR153W/NUP53] | 2.9 ± 0.036
FDPSRIKDLKQREDKLK [SMC2] | 2.99 ± 0.28
FDVVLTTFEYIIKERAL [SNF2] | 2.05 ± 0.088
FEAAVKMSDGFNGADIR [RPT4] | 3.34 ± 0.053
FEDATREQHIDTICQSI [SNF5] | 3.26 ± 0.066
FEEWIKMATDNKINSRN [BRN1] | 3.27 ± 0.11
FEFGNMKATSNTLEEFE [FAS2] | 3.13 ± 0.061
FEFNIRHSGKVYPITLS [UBP6] | 2.89 ± 0.089

same assay, conditions: ubr1∆

Sequence | protein stability index
EPSGIYSSWSAQTIGRN [PRE6] | 1.53 ± 0.097
EQEIENNGLPMKNKAET [ITC1] | 2.9 ± 0.067
